Experimental data as given in paper PMC3669411, “Characterization of Flavin-Based Fluorescent Proteins: An Emerging Class of Fluorescent Reporters” (PLoS ONE, 2013).

Experiments:
iLOV = biological target: T1, iLOV (Arabidopsis thaliana, UniProt P93025, S394T/S409G/C426A/I452T/F470L/M475V); assay: absorbance at […] nm vs Bradford total protein, as purified; format: binding; conditions: FMN-bound fraction of purified protein; noncovalent
T1 construct: gene PHOT2; primers give start MIEKNFVI, end LDGSDHV

[1] = biological target: EcFbFP, FMN-based fluorescent protein derived from the N-terminal LOV domain of Bacillus subtilis YTVA (E. coli codon-optimized gene) (Bacillus subtilis) (UniProt O34627); assay: SEC; Superdex 200 gel filtration on AKTA FPLC, calibrated with globular protein standards; 0.15 M NaCl (methods name phosphate buffered saline); oligomeric state = estimated mass divided by calculated monomer mass (110 Da per amino acid); mean of duplicates
[2] = biological target: EcFbFP, FMN-based fluorescent protein derived from the N-terminal LOV domain of Bacillus subtilis YTVA (E. coli codon-optimized gene) (Bacillus subtilis) (UniProt O34627); assay: SEC; Superdex 200 gel filtration on AKTA FPLC, calibrated with globular protein standards; 1 M NaCl (20 mM Tris hydrochloride, 1 M NaCl, pH 8.0); oligomeric state = estimated mass divided by calculated monomer mass (110 Da per amino acid); mean of duplicates
[3] = biological target: EcFbFP, FMN-based fluorescent protein derived from the N-terminal LOV domain of Bacillus subtilis YTVA (E. coli codon-optimized gene) (Bacillus subtilis) (UniProt O34627); assay: SEC; Superdex 200 gel filtration on AKTA FPLC, calibrated with globular protein standards; 0.5 M NaCl; oligomeric state = estimated mass divided by calculated monomer mass (110 Da per amino acid); mean of duplicates
[4] = biological target: PpFbFP, FMN-based fluorescent protein from Pseudomonas putida (Pseudomonas putida) (UniProt Q88JB0); assay: SEC; Superdex 200 gel filtration on AKTA FPLC, calibrated with globular protein standards; 0.15 M NaCl (methods name phosphate buffered saline); oligomeric state = estimated mass divided by calculated monomer mass (110 Da per amino acid); mean of duplicates
[5] = biological target: PpFbFP, FMN-based fluorescent protein from Pseudomonas putida (Pseudomonas putida) (UniProt Q88JB0); assay: SEC; Superdex 200 gel filtration on AKTA FPLC, calibrated with globular protein standards; 1 M NaCl (20 mM Tris hydrochloride, 1 M NaCl, pH 8.0); oligomeric state = estimated mass divided by calculated monomer mass (110 Da per amino acid); mean of duplicates
[6] = biological target: PpFbFP, FMN-based fluorescent protein from Pseudomonas putida (Pseudomonas putida) (UniProt Q88JB0); assay: SEC; Superdex 200 gel filtration on AKTA FPLC, calibrated with globular protein standards; 0.5 M NaCl; oligomeric state = estimated mass divided by calculated monomer mass (110 Da per amino acid); mean of duplicates

T1 sequence (P93025 387-496 S394T/S409G/C426A/I452T/F470L/M475V): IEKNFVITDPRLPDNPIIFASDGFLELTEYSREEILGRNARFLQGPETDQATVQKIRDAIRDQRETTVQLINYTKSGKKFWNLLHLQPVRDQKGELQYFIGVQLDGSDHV

`Cc1cc2nc3c(=O)[nH]c(=O)nc-3n(C[C@H](O)[C@H](O)[C@H](O)COP(=O)(O)O)c2cc1C` [FMN] gave a Fholo (iLOV) of 0.39±0.01.
“EcFbFP, FMN-based fluorescent protein derived from the N-terminal LOV domain of Bacillus subtilis YTVA (E. coli codon-optimized gene) (from UniProt O34627 20-147) (domain or fragment)” showed a stoichiometry N [1] of 1.9, a stoichiometry N [2] of 1.6 and a stoichiometry N [3] of 1.7.
“PpFbFP, FMN-based fluorescent protein from Pseudomonas putida (from UniProt Q88JB0 1-151) (natural protein)” was tested, and the stoichiometry N [4] was 1.9, the stoichiometry N [5] was 1.5 and the stoichiometry N [6] was 1.7.
